Measured values from patent US20100239570A1 (published 2010).
Where no end group is shown, it is not given here.

T1: Abeta1-11 (UniProt P05067 672-682)
T1 construct: range 1-11; Range is counted on the Abeta peptide
T1 peptide (looked up): DAEFRHDSGYE

T2: peptide consisting of amino acids 22-35 of Abeta (UniProt P05067 693-706)
T2 construct: range 22-35; Range is counted on the Abeta peptide; also called Abeta22-35
T2 peptide (looked up): EDVGSNKGAIIGLM

T3: Abeta17-28 (UniProt P05067 688-699)
T3 construct: range 17-28; Range is counted on the Abeta peptide
T3 peptide (looked up): LVFFAEDVGSNK

B1: Abeta29-40 fragment (peptide)
peptide: GAIIGLMVGGVV
modifications: not fully specified
B2: antibody NI-103 (antibody, V domains shown)
VH: EVQLHQSGPELVKPGASVKISCKTSGYTFTEYTMHWVKQSHGKSLEWIGGVNPYNDNTSYIRKLQGKVTLTVDRSSSTAYMELRSLTSEDSAVYFCARYGGLRPYYFPMDFWGQGTSVTVSS
VL: QVVLSQSPAILSASPGERVTLTCRASSSVNYMHWYQQKPGSSPKAWIYATSNLASGVPDRFSASGSGTSYSLTISRVEAEDAATYYCQQWRTNPPTFGAGTKLELKR
notes: detected in ELISA with anti-mouse IgG; treated as the same molecule

Tests used:
antibody NI-103 = molecular target: B2; assay: competition ELISA, peptide at 1 µM in solution against coated Abeta1-42
Procedure: (§1) 96 well half area Microplates (Corning) were coated with synthetic Abeta-peptide preparations at a standard concentration of 1 μg/ml in coating buffer (15 mM Na₂CO₃, 35 mM NaHCO₃, pH 9.42) overnight at 4° C. Plates were washed and non-specific binding sites were blocked for 1 h at RT with PBS containing 2% BSA (Sigma, Buchs, Switzerland).

Abeta1-28 = molecular target: T4, Abeta1-28 (UniProt P05067 672-699); assay: ELISA, peptide coated at 1 ug/ml
T4 construct: range 1-28; Range is counted on the Abeta peptide
Procedure: as §1

Abeta1-11 = molecular target: T1, Abeta1-11; assay: ELISA, peptide coated at 1 ug/ml
Procedure: as §1

[1] = molecular target: T2, peptide consisting of amino acids 22-35 …; assay: ELISA, peptide coated at 1 ug/ml
Procedure: as §1

Abeta1-38 = molecular target: T5, Abeta1-38 (UniProt P05067 672-709); assay: ELISA, peptide coated at 1 ug/ml
T5 construct: range 1-38; Range is counted on the Abeta peptide; also called Abeta fragment consisting of amino acids 1-38
Procedure: as §1

Abeta29-40 fragment = molecular target: B1; assay: ELISA, peptide coated at 1 ug/ml
Procedure: as §1

Abeta17-28 = molecular target: T3, Abeta17-28; assay: ELISA, peptide coated at 1 ug/ml
Procedure: as §1

[2] = molecular target: T6, human wild type APP fused at the intracellular C-terminus to the yellow fluorescent protein variant Citrine, … (human, UniProt P05067 18-770); assay: immunofluorescence on live HEK 293 cells expressing human APP-Citrine, 30 min at 4 C
T6 construct: whole, on cells; also called cellular full-length APP; cell-surface APP; not shown: yellow fluorescent protein variant Citrine at the intracellular C-terminus
Procedure: HEK 293 cells were transiently transfected with a vector that expresses human wild type APP fused at the intracellular C-terminus to the yellow fluorescent protein variant Citrine. 24 hours after transfection the cells were incubated with human recombinant antibodies or control antibodies at 4° C. for 30 minutes. After a washing step the cell were fixed and surface-bound antibody was detected using Cy-3-labeled secondary antibodies to human or mouse IgG (Jackson ImmunoResearch). Analysis of fluorescence was performed on a confocal microscope (Leica).
Citrin-positive signals indicate APP-expressing cells.

| Binder | binding result (antibody NI-103) | binding result (Abeta1-28) | binding result (Abeta1-11) | binding result [1] | binding result (Abeta1-38) | binding result (Abeta29-40 fragment) | binding result (Abeta17-28) | binding result [2] |
| --- | --- | --- | --- | --- | --- | --- | --- | --- |
| B1 | binds |  |  |  |  |  |  |  |
| B2 |  | no binding | no binding | no binding | no binding | binds | no binding | no binding |
